Experimental data: PMC5758567 (2018)

Columns and labels:
[1] = biological target: T1, PDE6 (lower-affinity site) (Bos taurus, UniProt P11541); assay: activity titration
T1 chain 1: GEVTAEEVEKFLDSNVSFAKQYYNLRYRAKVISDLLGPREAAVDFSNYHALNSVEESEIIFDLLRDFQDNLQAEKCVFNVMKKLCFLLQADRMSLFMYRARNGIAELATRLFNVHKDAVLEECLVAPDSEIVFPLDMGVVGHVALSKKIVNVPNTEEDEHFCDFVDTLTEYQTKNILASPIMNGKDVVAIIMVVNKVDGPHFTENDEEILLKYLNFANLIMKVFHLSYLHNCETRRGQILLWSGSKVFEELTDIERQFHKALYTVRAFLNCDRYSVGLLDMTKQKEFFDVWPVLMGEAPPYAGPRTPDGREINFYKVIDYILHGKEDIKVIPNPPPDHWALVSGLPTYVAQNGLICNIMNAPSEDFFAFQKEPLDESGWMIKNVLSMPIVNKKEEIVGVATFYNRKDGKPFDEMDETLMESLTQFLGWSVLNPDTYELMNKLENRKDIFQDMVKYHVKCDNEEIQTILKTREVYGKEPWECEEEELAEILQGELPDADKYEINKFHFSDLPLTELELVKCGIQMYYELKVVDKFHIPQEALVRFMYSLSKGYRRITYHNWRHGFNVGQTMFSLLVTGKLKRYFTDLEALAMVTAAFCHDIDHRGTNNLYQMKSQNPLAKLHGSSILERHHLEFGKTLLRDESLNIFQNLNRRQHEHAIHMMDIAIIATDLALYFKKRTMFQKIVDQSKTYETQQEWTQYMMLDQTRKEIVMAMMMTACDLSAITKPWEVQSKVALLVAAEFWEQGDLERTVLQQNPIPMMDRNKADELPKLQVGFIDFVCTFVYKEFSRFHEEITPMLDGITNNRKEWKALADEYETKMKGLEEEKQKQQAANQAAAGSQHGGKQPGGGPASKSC
T1 chain 2: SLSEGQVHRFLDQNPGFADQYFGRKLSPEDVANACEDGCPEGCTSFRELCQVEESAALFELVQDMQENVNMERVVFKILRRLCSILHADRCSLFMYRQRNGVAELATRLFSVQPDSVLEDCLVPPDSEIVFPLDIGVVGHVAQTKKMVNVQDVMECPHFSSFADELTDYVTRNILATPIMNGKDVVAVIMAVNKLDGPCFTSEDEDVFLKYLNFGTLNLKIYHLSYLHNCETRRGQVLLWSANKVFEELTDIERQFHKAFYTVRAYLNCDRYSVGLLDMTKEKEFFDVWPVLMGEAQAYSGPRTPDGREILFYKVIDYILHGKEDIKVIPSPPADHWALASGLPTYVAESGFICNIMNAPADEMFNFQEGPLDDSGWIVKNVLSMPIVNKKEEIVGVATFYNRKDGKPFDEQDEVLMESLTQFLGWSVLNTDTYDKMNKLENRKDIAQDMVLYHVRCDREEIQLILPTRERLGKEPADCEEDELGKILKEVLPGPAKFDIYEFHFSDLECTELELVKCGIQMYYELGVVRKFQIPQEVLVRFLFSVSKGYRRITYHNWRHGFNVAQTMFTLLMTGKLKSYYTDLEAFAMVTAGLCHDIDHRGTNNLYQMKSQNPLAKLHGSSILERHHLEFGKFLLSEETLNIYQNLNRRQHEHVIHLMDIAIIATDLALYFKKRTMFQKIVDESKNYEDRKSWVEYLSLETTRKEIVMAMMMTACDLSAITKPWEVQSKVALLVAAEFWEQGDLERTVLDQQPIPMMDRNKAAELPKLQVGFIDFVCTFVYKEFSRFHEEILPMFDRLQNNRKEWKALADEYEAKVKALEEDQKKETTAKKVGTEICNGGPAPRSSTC

[2] = biological target: T2, PDE6 (higher-affinity site) (Bos taurus, UniProt P11541); assay: activity titration
T2 chain 1: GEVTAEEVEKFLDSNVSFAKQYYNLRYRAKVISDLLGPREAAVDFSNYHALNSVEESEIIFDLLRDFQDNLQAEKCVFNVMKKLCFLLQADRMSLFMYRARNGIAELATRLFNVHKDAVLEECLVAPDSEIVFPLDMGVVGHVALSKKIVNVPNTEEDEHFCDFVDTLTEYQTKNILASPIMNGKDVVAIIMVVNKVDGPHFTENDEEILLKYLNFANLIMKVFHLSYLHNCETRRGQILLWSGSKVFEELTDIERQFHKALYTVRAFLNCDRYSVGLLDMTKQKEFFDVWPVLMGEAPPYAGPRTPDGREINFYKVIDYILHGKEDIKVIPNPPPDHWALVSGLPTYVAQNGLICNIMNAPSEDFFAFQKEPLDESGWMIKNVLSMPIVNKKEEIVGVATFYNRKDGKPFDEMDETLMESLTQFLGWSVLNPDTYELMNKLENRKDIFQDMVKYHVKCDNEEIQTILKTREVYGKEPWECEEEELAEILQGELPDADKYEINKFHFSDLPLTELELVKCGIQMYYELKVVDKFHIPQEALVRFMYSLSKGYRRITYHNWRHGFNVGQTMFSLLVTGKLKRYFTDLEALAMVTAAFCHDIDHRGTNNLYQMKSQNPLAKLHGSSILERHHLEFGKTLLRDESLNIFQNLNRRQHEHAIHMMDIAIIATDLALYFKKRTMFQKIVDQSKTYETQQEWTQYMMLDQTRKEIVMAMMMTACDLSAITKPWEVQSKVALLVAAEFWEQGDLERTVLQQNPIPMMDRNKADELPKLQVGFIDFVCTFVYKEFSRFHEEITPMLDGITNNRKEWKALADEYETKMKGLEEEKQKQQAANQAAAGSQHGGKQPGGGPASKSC
T2 chain 2: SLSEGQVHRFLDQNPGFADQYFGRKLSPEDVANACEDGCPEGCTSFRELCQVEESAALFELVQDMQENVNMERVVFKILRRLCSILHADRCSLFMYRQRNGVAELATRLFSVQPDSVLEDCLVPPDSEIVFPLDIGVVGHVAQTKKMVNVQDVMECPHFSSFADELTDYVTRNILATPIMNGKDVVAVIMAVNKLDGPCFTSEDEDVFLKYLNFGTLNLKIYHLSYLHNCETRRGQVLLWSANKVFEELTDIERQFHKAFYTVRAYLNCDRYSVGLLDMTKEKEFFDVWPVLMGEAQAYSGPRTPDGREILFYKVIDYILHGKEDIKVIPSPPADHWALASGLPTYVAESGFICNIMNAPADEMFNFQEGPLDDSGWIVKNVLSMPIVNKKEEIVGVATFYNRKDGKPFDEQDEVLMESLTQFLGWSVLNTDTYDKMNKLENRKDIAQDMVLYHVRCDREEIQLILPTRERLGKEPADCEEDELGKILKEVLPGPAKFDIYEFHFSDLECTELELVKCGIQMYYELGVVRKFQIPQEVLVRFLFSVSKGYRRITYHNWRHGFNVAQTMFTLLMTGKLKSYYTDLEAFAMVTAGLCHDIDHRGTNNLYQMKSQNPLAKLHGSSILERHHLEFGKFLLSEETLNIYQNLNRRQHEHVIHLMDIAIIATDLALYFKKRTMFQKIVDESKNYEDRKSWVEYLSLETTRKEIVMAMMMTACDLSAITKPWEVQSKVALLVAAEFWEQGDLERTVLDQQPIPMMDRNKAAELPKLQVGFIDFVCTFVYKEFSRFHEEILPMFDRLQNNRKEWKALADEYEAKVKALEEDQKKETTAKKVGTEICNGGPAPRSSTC

- Kd [1]: 700 nM
- Kd [2]: 40 nM
B1: PrBP/δ (protein)
chain: MSAKDERAREILRGFKLNWMNLRDAETGKILWQGTEDLSVPGVEHEARVPKKILKCKAVSRELNFSSTEQMEKFRLEQKVYFKGQCLEEWFFEFGFVIPNSTNTWQSLIEAAPESQMMPASVLTGNVIIETKFFDDDLLVSTSRVRLFYV
